In US20220265769A1, “COMPOSITIONS AND METHODS OF TREATMENT FOR BREAST CANCER INVOLVING A NOVEL CAPER?-MLL1 COMPLEX” (Geisinger Health, priority 2019, published 2022):

B1: RRM3: recombinant RRM3 (441-500)-myc peptide without Penetratin (SEQ ID NO: 33) (protein)
chain: GWDTEIKDDVIEECNKHGGVIHIYVDKNSAQGNVYVKCPSIAAAIAAVNALHGRWFAGKMTAAYVPEQKLISEEDL
modifications: RRM3-derived synthetic sequence
B2: CPP-RRM3: recombinant RRM3 (441-500) conjugated with the Penetratin cell penetrating peptide, myc tag (SEQ ID NO: 32) (protein)
chain: RQIKIWFQNRRMKWKKGWDTEIKDDVIEECNKHGGVIHIYVDKNSAQGNVYVKCPSIAAAIAAVNALHGRWFAGKMTAAYVPEQKLISEEDL
modifications: RRM3-derived synthetic sequence

Key:
T47D cells = test: Crystal violet assay / cell counts of T47D cells treated with cell penetrating peptides; assay type: cell-based, human; conditions: 5 μM peptide in media, 72 hrs
Description: FIG. 9. […] A) Amino acid sequences of CPP-RRM1-myc, and RRM3-(441-500)-myc (SEQ ID NO: 33) and CPP-RRM3 (441-500)-myc (SEQ ID NO: 32) peptides. The sequence of Penetratin is in grey, myc tag in light grey and RRM3 in black. B) Coomassie staining showing GST-tagged, purified proteins. C, D) Representative light microscopic images of crystal violet stained cells taken after 3 days of treatment with 5 uM CPP-RRM3 (441-500)-myc. E, F) Crystal violet assay of cell numbers during treatment with 5 uM CPP-RRM3 (441-500) myc. G) Quantification of total number of cells before and after 3 days of treatment with CPP RRM3. H, I, J) Representative light microscopic images of crystal violet stained T47D cells taken after 3 days of treatment with peptides listed at top. K, L, M) Crystal violet assay of number T47D cells over 3 days of treatment with peptides listed. N) Quantification of total number of T47D cells before and after 3 days of treatment.
(§1) Crystal violet assay/optical density method of cell quantitation: 5×10^5 cells were plated per well in 6-well tissue culture plates. At times indicated cells were washed with PBS and fixed for 10 minutes in a 10% formalin solution. Cells were then rinsed with distilled water and subsequently stained with 100 μl 0.1% crystal violet solution for 30 min. Stained cells were rinsed with water to remove the excess traces of the staining solution. Cell-associated crystal violet dye was extracted with 500 μl of 10% acetic acid. Aliquots were collected and optical density was measured at 590 nm wavelength. Each point on the curve shown represents 3 independent wells.
(§2) Cell counts for CPP treatments: Cells were plated in 6-well dishes and incubated with 5 μM concentration of peptides. At days noted, cells were trypsinized and counted using a hemocytometer.
Whether recombinant RRM3 conjugated with the Penetratin cell penetrating peptide (Dupont E, et al., Methods Mol Biol. 1324:29-37 (2015)) (FIGS. 9A, B) affects growth of T47D and PME cells was tested. Equal numbers of PME and T47D cells were seeded and incubated with 5 μM peptide in media for 72 hrs. […]

PME cells = test: Crystal violet assay / cell counts of primary mammary epithelial cells (PMEs) treated with cell penetrating peptides; assay type: cell-based, human; conditions: PME cells, 5 μM peptide in media, 72 hrs
Description: as §1, §2
Whether recombinant RRM3 conjugated with the Penetratin cell penetrating peptide (Dupont E, et al., Methods Mol Biol. 1324:29-37 (2015)) (FIGS. 9A, B) affects growth of T47D and PME cells was tested. Equal numbers of PME and T47D cells were seeded and incubated with 5 μM peptide in media for 72 hrs. […] Compared to CPP-coupled RRM3, CPP-RRM1 and RRM3 had no effect (FIGS. 9H-N). […]

| Molecule | number of breast cancer cells (T47D cells) | number of breast cancer cells (T47D cells; listed as Cell-penetrating CAPERα RRM3) | number of PMEs (PME cells) |
| --- | --- | --- | --- |
| B1 | no effect | – | – |
| B2 | dramatically decreased | disrupts breast cancer cell growth | no effect |
